Data taken from the DeepSol protein solubility set.

Assay: soluble on expression in E. coli; label from the status in PepcDB or PDB records

Sequence	soluble on expression in E. coli
MGSDKIHHHHHHMFSQNDNINILVIRFKRIGDAILSLPLCHSLKLTFPNSKVDFVLYEDVAPLFEGHPYIDNVITITKEEQKNPFKYIKKVYNVTRKKYDIIIDIMSTPKSELFCMFSRKTPFRIGRYKKKRGFFYNYKMKEKESLNKVDKFLNQLLPPFEEVGFDVKKDYDFKFFAEKKEKEKYKQKMLETGVDFSKPVIAFSIYSRVAHKIYPIDKMKEVVKFLINRYSAQIIFFYSADQKDEIQKIHKEIGDFKNIFSSIETPTIKNLVPFLENCDYYIGNEGGARHLAQGVGIPTLAIFSPSADLKEWLPFPSEKNMGISPIDMLEKNALSLDDFNKMNPEEQFSLIDIETIKEMSDELIEKNKRK	not soluble
MQIVQIARPGSMKGWIRKAVARYAHATGRGGKFYRRFCNPSGLEWGAYLARWGNFHSVGSNFYVNTGCKFLDPSLVRIGNSVGLSDCTLIGHDGVVLLIEHRFGKHLDSVGFIDIKDNCFIGHGAIVMPRVTIGPESIVAAGAVVTKDVPPGTVYGGNPAEFICTTEQLIKRVEARCEAYPWIDLVKQRNGAYDPEVEPLLMAQRRQYFFGDSLEHHHHHH	not soluble
SQTRDLQGGKAFGLLKAQQEERLDEINKQFLDDPKYSSDEDLPSKLEGFKEKYMEFDLNGNGDIDIMSLKRMLEKLGVPKTHLELKKLIGEVSSGSGETFSYPDFLRMMLGKRSAILKMILMYEEKAREK	not soluble
GSLSLIRKKGFYKQDVNKTAWELPKTYVSPTHVGSGAYGSVCSAIDKRSGEKVAIKKLSRPFQSEIFAKRAYRELLLLKHMQHENVIGLLDVFTPASSLRNFYDFYLVMPFMQTDLQKIMGMEFSEEKIQYLVYQMLKGLKYIHSAGVVHRDLKPGNLAVNEDCELKILDFGLARHADAEMTGYVVTRWYRAPEVILSWMHYNQTVDIWSVGCIMAEMLTGKTLFKGKDYLDQLTQILKVTGVPGTEFVQKLNDKAAKSYIQSLPQTPRKDFTQLFPRASPQAADLLEKMLELDVDKRLTAAQALTHPFFEPFRDPEEETEAQQPFDDSLEHEKLTVDEWKQHIYKEIVNFSPIARKDSRV	soluble
MATAVVQRKGYDNVELSLSEDDDPVKEKKKSKGNEKKSSTESKSKESKETSKEEDLAQKKFLMTQKTQSMTEDEKEVKPKAPESQKPKKNSAEESNEKIKKEGSVKVETVASKVKPASSRVPPIASTPGKGSVDGEQKKKSTGCCIIL	soluble
MLDANKLQQAVDQAYTQFHSLNGGQNADYIPFLANVPGQLAAVAIVTCDGNVYSAGDSDYRFALESISKVCTLALALEDVGPQAVQDKIGADPTGLPFNSVIALELHGGKPLSPLVNAGAIATTSLINAENVEQRWQRILHIQQQLAGEQVALSDEVNQSEQTTNFHNRAIAWLLYSAGYLYCDAMEACDVYTRQCSTLLNTIELATLGATLAAGGVNPLTHKRVLQADNVPYILAEMMMEGLYGRSGDWAYRVGLPGKSGVGGGILAVVPGVMGIAAFSPPLDEDGNSVRGQKMVASVAKQLGYNVFKG	soluble
MINEHYIPQAVILANGEYPAHELPLRLLAEAQFVVCCDGAANEYISRGHTPDVIIGDGDSLLPEYKKRFSSIILQISDQETNDQTKAVHYLQSKGIRKIAIVGATGKREDHTLGNISLLVEYMRSGMEVRTVTDYGTFIPVSDTQSFASYPGQQVSIINFGAKGLKAEGLFYPLSDFTNWWQGTLNEAIADEFTIHCTGEYLVFLAY	soluble
MGSDKIHHHHHHMSQQEFDVLVIGAGISGAALFYELARYTNIKNIALIEKYNTAATLNSKGTSNSQTIHCGDIETNYTLEKARKVKRTADMIVKYGLMQNAQNNFMFSHQKMALAVGDIECDYMKKRYEEFKELYPYIKFFDKAKIKQIEPKVVLGEDCNQDRPENICAMGVESGEVFTTVDFGKMSINLIEQAQKQNKNTFVAFNQEIIHIEKKDDIFILKTSNHQEYHAKSVVVNAGAHSLYLAHKMNLGMDKSCWPVAGSFYLTKQKLLNGKVYMVQNPKLPFAALHGDPDLLADMNTRFGPTALVIPKLERYHGLKSVPEFFEALKLDKTVLKVTFNMFKDATIRNYIFYNYLFELPFVDKSLFVKDAKKIVPSLKASDIYYAKGFGGVRPQVIDKTKGELMLGEASITETPGIIFNMTPSPGATSCLGNAERDAKLVCNYLGMEFNEDKFSSELL	not soluble
MSLYSTDSGNLFHAGRILVVLVGLPATSKTLLSVAITRYTRWLGVRTKSFHFSEYKESAKNIPSDYFCVVPTSKEGVAFVEKLRMQMLNDILAFFNDLSGQLAIYDALNIRKIDRKNLETTFSEIGVKVLFIESIVSDQEIMNRNIALALESNDYKGLSTDEAIDEYMRRLSVNEPYYEMMTHDEELSYIKYINLGKQIIVKDNIHGYLVNKIVFFLMNLRQKKGCVYFARCGTSDKDNYIHDEELNEEGIHYSQVLKDFVLQRIKQKRQAKKNSDSLVEVIDGSHDEDLKTSLIVWTGPRKRTHDTALFFSKEGIKVQQRSELRQLNPGSIADLTDQQIMDKFPSEYKESLKDPYHFRFPRAESYHDLAVRMEPLLLEMEHTSKDILIIAHESTLRVLYGYLMACTCVELPNLNFTRDKLVEISFSPFCNTVELLNIPLTEGHHHHHH	soluble
PQFHLWKRPVVTAHIEGQPVEVLLDTGADDSIVTGIELGPHYTPKIVGGIGGFINTKEYKNVEVEVLGKRIKGTIMTGDTPINIFGRNLLTALGMSLNF	soluble
LGQTTERYKSVIESMIEGIIIIDLEGKIIDHNKAATQIIGYEDLVLIGNDFSLGPGEAIREDETKFPFEEFPGIKTLRTGMPYKNVILGWIIPGKDTIWLSINSEPVKNENGEQVAVVCSYSDVT	not soluble
MVLAGGVGKRLLPLTRERPKPYLPLAGKPLYMYAVEQVAMVRSLLDRAVMVTPPGHPTPPGSLPSWLDTVEQQGEGVEAGLATALKRLGGGEEVVVSFVGYLARPNTLVRHVLDFYSVTRYKLVLALAPVTRGSESFGFVDADPSTGRVLGFSGSREEWMAGRGRVFAGVLAGDPEALEVLAGEGFVEGINTLARRGLVGSVVWPGEWLEVGYPCDLLEAPRLVVEAWAAVISAKARVARSSVIQGGVVIEEDAEVGEGAVVEGPAYLGRGAVVGRNSVVGPGVVLEEGAVVGDLVSIERSVMLERAEASGPSRLEGVVIGDGAYIAPLAAATNREGCTVVAPKTRLGPRATLEPGKTYTLEHHHHHH	not soluble
INVIISTIISTKRADDFIIAMCNLIQRLTIDSLHIVGDIYDRGPGAHIIMDTLCNYHNFDIQWGNHDILWMGAASGNDSCIANVIRMSMRYGNLGTLEDGYGINLLPLATFAMDTYADDPCTIFMPKMNFADTNYNEKTLRLITQMHKAITIIQFKLEAEIIDRRPEFGMSNRKLLEKIDFERGVFVYEGKEYALRDTNFPTVDPADPYRLTDEERELVEKIHYSFMNSEKLKKHMRCLFTYGGMYLVSNSNLLYHASVPLNEDGSFKHVKIRGKEYWGRKLLDKADQLIRTAYFDEEGEDDKEFAMDYIWYMWCGPEAPLFDKDKMATFERYFLEDKEIQKEKKGYYYTLRNREDICDQILDEFGALGPHSHIINGHVPVKTIQGEQPMKANGKLFVIDGGFSKAYQPETGIAGYTLVYHSHGMQL	not soluble
MSGFDLIIFDCDGVLVDSEIIAAQVESRLLTEAGYPISVEEMGERFAGMTWKNILLQVESEASIPLSASLLDKSEKLLDMRLERDVKIIDGVKFALSRLTTPRCICSNSSSHRLDMMLTKVGLKPYFAPHIYSAKDLGADRVKPKPDIFLHGAAQFGVSPDRVVVVEDSVHGIHGARAAGMRVIGFTGASHTYPSHADRLTDAGAETVISRMQDLPAVIAAMAEWEGAF	soluble
GGGVKAFAFIGALQVLEENGFSFTRVAGTSAGAIFASLVCSGYRSDELFSIMEQLDGKMFKDGGKVMPFPFAKWLRLYFKLGMYKGDQLEKWLIQVLGHKGVSTFADLPKGALKIVASDISRGRLIVLPDDLKDYGLIPERFSVARAVRMSCGIPYFFQPVKLYNRKRRGERSYVVDGGILSNFPIWL	not soluble
LYLKRATHRIADGIGVVKASKLMGGSIRERVTGIDVMDNFLEYANQHKERIFLYGAKQEVVEAAAKNIQRQYPGIVISGILHGYTKKKQQEIVEQINKAEPRFVFVALGSPKQEIFLEQTIDHLTANVFLDVGGTFDVLAGSVKRAPEFYINHNLEWLYRCLTMKRYDRLMQIPKYIYLTIKYRNNKSRGQ	not soluble
MWQPATERLQVTYLGKVSTTGMQFLSGCTEKPVIELWKKHTLAREDVFPANALLEIRPFQVWLHHLDHKGEATVHMDTFQVARIAYCTADHNVSPNIFAWVYREINDDLSYQMDCHAVECESKLEAKKLAHAMMEAFRKTFHSMKSDGRIHSNSSSEEVSQELESDDG	soluble
MGSDKIHHHHHHTEETAKVVPMAVITPAINQLTDQEKAEGWALLFDGKTTKGWRGAHKDAFPDHGWMVKDGELIVQKSDGSESTNGGDIVTEGEYSAFEFSVDFKITEGANSGIKYFVTEQEKQKGSAYGLEFQLLDDAKHPDAKLYTTFPGSRTLGSLYDLKKSENIHFNGVGEWNTAVVKVFPNNHVEHWLNGVKVLEYERGSKEFRDLVKGSKYADPSYNAGGAFGEAPKGHILLQDHGDEVAFRNIKVKELK	not soluble
MSLKIEPCLPMKILIVEDDPLMQLGLEQALGAHERFEIIGRVDNGYGAVQQAAVLNPDLIVMDIGLPGLDGIEATKQIKQTSPQIHIVVLTSHTLPNEIIAALSSGADAYCVKGATLERLILAIAAAQDGATYLDPQIARVVVENLKPPVPEGQADVSSLSEREIDVLKLIVEGKSNQEIAQTLYLSTNTIKTHVRGIMNKLSVDDRVQAAVIALRSGLVEGHHHHHH	soluble
MPGYAQYRSFSEDLSMNMEEIVALSVKHNVSDLHLCSAWPARWRIRGRMEAAPFDAPDVEELLREWLDDDQRAILLENGQLDFAVSLAENQRLRGSAFAQRQGISLALRLLPSHCPQLEQLGAPPVLPELLKSENGLILVTGATGSGKSTTLAAMVGYLNQHADAHILTLEDPVEYLYASQRCLIQQREIGLHCMTFASGLRAALREDPDVILLGELRDSETIRLALTAAETGHLVLATLHTRGAAQAVERLVDSFPAQEKDPVRNQLAGSLRAVLSQKLEVDKQEGRVALFELLINTPAVGNLIREGKTHQLPHVIQTGQKVGMLTFQQSYQQRVGEGRL	not soluble
MKVILVNGSPHKDGCTFTALEEVAKALNEEGIDTEFFHLGTKPLNGCIACGHCRKHQRCVFPDSVNEFLDLAQEADGFIFGSPVHYAAAGGAITSFLDRVFYTDSGSGKQAFYLKPAAAVVSARRAGTTASLDQLNRYFTIKEMPIISSKYWNMVHGNTPEEVRKDEEGLQIMRTLGRNMAWFLKCKEAGIRAGIPFPSQEEGLRTNFIRLEHHHHHH	soluble
MGSDKIHHHHHHACSSEEGGSQAMGGKGAVILDLAAETVFDTKTKAVDESTYLTDRPLADYKVKILDAQGHVVSGCEWKYSERPTGLIELSNGSYTVVASDGEEFNVNASTRNGIYMYGSSRFDVNSDKVAAVNVACKPACGKLVVKFGDTMATYFSDYAVHFSTQAAGENGSIIWPKGDTDPLYVKLAEAGENVTATFQFTKKADGTNAEVNTLTREMKWGSMWTITVNPKVEDTTGKVGITITFDDSTNDKPIDIEIPSDWL	not soluble
DITGIPTGFTELDRMTAGFQRNDLIIVAARPSVGKTAFALNIAQNVATKTDESVAIFSLEMGAEQLVMRMLCAEGNINAQNLRTGNLTEEDWGKLTMAMGSLSNSGIYIDDTPGIRVSEIRAKCRRLKQESGLGMILIDYLQLIQGSGRSKDNRQQEVSEISRELKSIARELQVPVIALSQLSRGVEQRQDKRPMMSDI	not soluble
